Measurements published in patent publication US20240076386A1 (Pfizer, published 2024).

T1: recombinant histidine-tagged human E-selectin (Sino Biologicals; 13025-H08H) (human, UniProt P16581 22-556)
T1 construct: also called recombinant human E-selectin; soluble recombinant human E-selectin
T1 sequence (looked up): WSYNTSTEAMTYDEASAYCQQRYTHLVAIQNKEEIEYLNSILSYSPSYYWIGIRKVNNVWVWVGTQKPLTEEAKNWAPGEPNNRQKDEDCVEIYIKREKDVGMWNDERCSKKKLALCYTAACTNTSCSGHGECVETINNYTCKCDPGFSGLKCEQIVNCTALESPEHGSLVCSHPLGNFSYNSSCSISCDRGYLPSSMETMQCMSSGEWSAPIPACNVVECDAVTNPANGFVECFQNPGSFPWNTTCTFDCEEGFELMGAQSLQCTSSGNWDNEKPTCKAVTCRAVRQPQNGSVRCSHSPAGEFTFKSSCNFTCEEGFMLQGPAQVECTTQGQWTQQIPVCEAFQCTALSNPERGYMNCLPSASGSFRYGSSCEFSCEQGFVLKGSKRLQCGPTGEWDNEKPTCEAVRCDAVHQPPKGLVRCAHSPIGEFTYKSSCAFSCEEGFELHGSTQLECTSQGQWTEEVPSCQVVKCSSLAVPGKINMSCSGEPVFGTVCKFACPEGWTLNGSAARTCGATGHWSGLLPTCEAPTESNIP

T2: recombinant histidine-tagged cynomolgus monkey E-selectin (Sino Biologicals; 190169-C08H) (cynomolgus monkey, UniProt A0A2K5U7H9 22-554)
T2 construct: also called recombinant cynomolgus monkey E-selectin
T2 sequence: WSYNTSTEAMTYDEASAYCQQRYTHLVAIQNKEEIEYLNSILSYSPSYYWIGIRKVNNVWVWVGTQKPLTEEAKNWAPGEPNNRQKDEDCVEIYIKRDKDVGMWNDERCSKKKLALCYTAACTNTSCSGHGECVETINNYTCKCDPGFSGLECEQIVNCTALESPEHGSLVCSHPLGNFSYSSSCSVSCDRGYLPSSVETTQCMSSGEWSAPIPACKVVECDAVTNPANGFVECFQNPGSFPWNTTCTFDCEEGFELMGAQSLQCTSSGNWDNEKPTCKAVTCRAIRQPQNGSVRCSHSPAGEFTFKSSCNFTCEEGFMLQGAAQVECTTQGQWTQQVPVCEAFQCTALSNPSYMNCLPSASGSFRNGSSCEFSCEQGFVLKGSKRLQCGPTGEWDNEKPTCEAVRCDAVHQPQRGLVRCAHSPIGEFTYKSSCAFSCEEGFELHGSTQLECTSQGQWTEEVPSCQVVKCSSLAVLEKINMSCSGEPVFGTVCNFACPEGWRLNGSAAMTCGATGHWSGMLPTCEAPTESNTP


How the values were obtained:
[1] = target: T1, recombinant histidine-tagged human …; test: direct binding ELISA, His-tagged selectin on plate
Description: (§1) Recombinant histidine tagged human P-, E- or L-selectin (Sino Biologicals), mouse E-selectin (Sino Biologicals), rat E-selectin (Sino Biologicals) and Cynomolgus monkey E-selectin (Sino Biologicals) stock solutions were prepared to a final concentration of 1 μg/mL in phosphate buffered saline without calcium and magnesium. Controls included an L-selectin directed antibody (BioLegend; 304811) or P-selectin directed antibody or a negative control IgG. One hundred μL per well of the diluted recombinant selectin proteins were added into a Ni-NTA HisSorb 96 well plate (Qiagen; 35061). Plates were incubated on an orbital shaker at room temperature for 2 hours. Following the incubation, the plates were washed 3 times with 200 μL of wash buffer (50 mM TRIS [trisaminomethane]; 150 mM sodium chloride; 0.05% polysorbate 20, pH 7.4). To decrease nonspecific binding, plates were treated with 200 μL of blocking buffer (BD Opteia buffer; 555213; BD Biosciences), incubated on an orbital shaker for 1 hour at room temperature and washed as described above. […] One hundred μL specific detection antibodies (described below) were added and incubated for 1 hour: [0556] […] Anti L-selectin and anti-rat-E-selectin antibodies were detected using 1 to 25000 dilution of Peroxidase-conjugated AffiniPure Goat Anti-Mouse IgG (H+L); (Jackson ImnnunoResearch Lab).
(§2) Plates were washed and 100 μL per well of 1-Step Ultra TMB substrate (Thermo Scientific) was added and incubated for 5 minutes at room temperature. Reactions were stopped with 100 μL of 2 M sulfuric acid and absorbance read at 450 nm (Spectramax M5e).

[2] = target: T2, recombinant histidine-tagged cynomolgus …; test: direct binding ELISA, His-tagged selectin on plate
Description: as §1, §2

EC50 [1] [nM]	EC50 [2] [nM]	Binder
0.17	0.081	humanized anti-E-selectin antibody 0841 (antibody, human IgG1, kappa, V domains shown, effector-null human IgG1, kappa) VH: EVQLVESGGGLVQPGGSLRLSCAASGYNIRSSYMHWVRQAPGKGLEWVARIDPANGNTIYAEKFKIRFTISADNAKNSAYLQMNSLRAEDTAVYYCAMDLYSTSEYWGQGTLVTVSS VL: DIQMTQSPSSLSASVGDRVTITCKTSQNINRYLNWYQQKPGKAPKLLIYNANSLQTGVPSRFSGSGSGTDFTLTISSLQPEDFATYFCLQDNSWPLTFGQGTKVEIKR
0.12	0.093	optimized anti-E-selectin antibody 1444 (antibody, human IgG1, kappa, V domains shown, effector-null human IgG1, kappa) VH: EVQLVESGGGLVQPGGSLRLSCAASGYAIRSAYMHWVRQAPGKGLEWVARIDPANGNTIYVDSVTGRFTISADNAKNSAYLQMNSLRAEDTAVYYCAMDLYSTSEYWGQGTLVTVSS VL: DIQMTQSPSSLSASVGDRVTITCKTSQNIERYLNWYQQKPGKAPKLLIYAASSLQSGVPSRFSGSGSGTDFTLTISSLQPEDFATYFCLQDNAWPLTFGQGTKVEIKR
0.1	0.082	optimized anti-E-selectin antibody 1284 (antibody, human IgG1, kappa, V domains shown, effector-null human IgG1, kappa) VH: EVQLVESGGGLVQPGGSLRLSCAASGYAIRSAYMHWVRQAPGKGLEWVARIDPANGNTIYVESVEGRFTISADNAKNSAYLQMNSLRAEDTAVYYCAMDLYSTSEYWGQGTLVTVSS VL: DIQMTQSPSSLSASVGDRVTITCKTSQNIERYLNWYQQKPGKAPKLLIYAASSLQSGVPSRFSGSGSGTDFTLTISSLQPEDFATYFCLQDNAWPLTFGQGTKVEIKR
